US20090297524A1 (DOMANTIS, published 2009)

T1: Recombinant human CD40L (human, UniProt P29965 108-261, limits assumed)
T1 construct: also called CD40 ligand
T1 sequence (looked up): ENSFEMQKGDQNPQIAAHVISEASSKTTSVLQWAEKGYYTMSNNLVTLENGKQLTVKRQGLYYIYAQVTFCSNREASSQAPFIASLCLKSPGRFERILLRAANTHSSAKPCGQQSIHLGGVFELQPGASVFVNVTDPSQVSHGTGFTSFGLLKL

B1: DOM-36 (other)
VL: DIQMTQSPSSLSASVGDRVTITCRASQDIDHNLEWYQQKPGKAPKLLIYDSSMLQSGVPSRFSGSGSGTDFTLTISSLQPEDFATYYCQQYHSIPVTFGQGTKVEIKR
notes: Vk dAb
B2: DOM-86 (other)
VL: DIQMTQSPSSLSASVGDRVTITCRASQDIGDALFWYQQKPGKAPKLLIYYSSMLQSGVPSRFSGGGSGTDFTLTISSLQPEDFATYYCQQRHSTPATFGQGTKVEIKR
notes: Vk dAb
B3: DOM.103 (other)
VL: DIQMTQSPSSLSASVGDRVTITCRASQAIGHRLRWYQQKPGKAPKLLIYHRSKLQSGVPSRFSGSGSGTDFTLTISSLQPEDFATYYCQQVRAVPYTFGQGTKVEIKR
notes: Vk dAb
B4: DOM.91 (other)
VL: DIQMTQSPSSLSASVGDRVTITCRASQQISDELNWYQQKPGKAPKLLIYAVSILQSGVPSRFSGSGSGTDFTLTISSLQPEDFATYYCQQWLSFPSTFGQGTKVEIKR
notes: Vk dAb
B5: DOM-35 (other)
VL: DIQMTQSPSSLSASVGDRVTITCRASQFIGDSLSWYQQKPGKAPKLLIYFSSILQSGVPSRFSGSGSGTDFTLTISSLQPEDFATYYCQQYMDIPITFGQGTKVEIKR
notes: Vk dAb
B6: DOM-38 (other)
VL: DIQMTQSPSSLSASVGDRVTITCRASQDIGNNLEWYQQKPGKAPRLLIYHGSWLQSGVPSRFSGSGSGTDFTLTISSLQPEDFATYYCQQYDFNPTTFGQGTKVEIKR
notes: Vk dAb
B7: DOM.89 (other)
VL: DIQMTQSPASLSASVGDRVTITCRASQDIDPMLRWYQQKPGKAPKLLIYAGSILQSGVPSRFSGSGSGTDFTLTISSLQPEDFATYYCQQTLVTPYTFGQGTKVEIKR
notes: Vk dAb
B8: DOM.101 (other)
VL: DIQMTQSPSSLSASVGDRVTITCRASQAIGHRLRWYQQKPGKAPKLLIYHRSKLQSGVPSRFSGSGSGTDFTLTISSLQPEDFATYYCQQVALFPYTFGQGTKVEIKR
notes: Vk dAb
B9: DOM-116 (other)
VL: DIQMTQSPSSLSASVGDRVTITCRASQPIGPDLLWYQQKPGKAPKLLIYQTSILQSGVPSRFSGSGSGTDFTLTISSLQPEDFATYYCQQYWAFPVTFGQGTKVEIKR
notes: Vk dAb
B10: DOM-49 (other)
VL: DVQMTQSPSSLSASVGDRVTITCRASQWIGDSLSWYQQKPGKAPKLLIYFGSYLQSGVPSRFSGSGSGTDFTLTISSLQPEDFATYYCQQYMSAPSTFGQGTKVEIKR
notes: Vk dAb
B11: DOM.104 (other)
VL: DIQMTQSPSSLSASVGDRVTITCRASQAIGHRLRWYQQKPGKAPKLLIYHRSKLQSGVPSRFSGSGSGTDFTLTISSLQPEDFATYYCQQVRFSPYTFGQGTKVEIKR
notes: Vk dAb
B12: DOM-47 (other)
VL: DIQMTQSPSSLSASVGDRVTITCRASQWIGDSLSWYQQKPGKAPKLLIYFGSYLQSGVPSRFSGSGSGTDFTLTISSLQPEDFATYYCQQYLHTPSTFGQGTKVEIKR
notes: Vk dAb
B13: DOM-37 (other)
VL: DIQMTQSPSSLSASVGDRVTITCRASQQIETNLEWYQQKPGKAPKLLIYDGSWLQSGVPSRFSGSGSGTDFTLTISSLQPEDFATYYCQQYHSLPATFGQGTKVEIKR
notes: Vk dAb
B14: DOM-52 (other)
VL: DIQMTQSPSSLSASVGDRVTITCRASQDIGSALRWYQQKPGKAPKLLIYLGSDLQSGVPSRFSGSGSGTDFTLTISSLQPEDFATYYCQQTQYFPTTFGQGTKVEIKR
notes: Vk dAb

The binders below were run against T1, Recombinant human CD40L (assay: CD40L/CD40-Fc receptor binding assay;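 further: plate assay with coated human CD40-Fc, bound ligand detected via HRP anti-biotin antibody and TMB, OD at 450 nm, lower signal indicates stronger inhibition by dAb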).
B1: binds.
B2: binds.
B3: binds.
B4: binds.
B5: binds.
B6: binds.
B7: binds.
B8: binds.
B9: binds.
B10: binds.
B11: binds.
B12: binds.
B13: binds.
B14: binds.
